# Data: US20250269056A1 (published 2025)
# Molecular target: T1, epidermal growth factor receptor (EGFR) on EGFR-expressing cell lines (HeLa, HT-29, MRC-5, A549) (UniProt P00533 25-1210)
# T1 construct: whole, on cells; EGFR expression in the cell lines was verified by Western blot; HEK293T served as the EGFR-negative line; also called EGF receptor
# Experiment: fluorescence microscopy of Alexa Fluor 488-labelled phage on HeLa cells
binder,measurement,value
"M13KO7 helper phage (no display) (other, mature; Whole phage particle without a ligand, labelled with Alexa Fluor 488 in the localisation experiment; also called EGF- phage; non-displaying phage) AETVESCLAKPHTENSFTNVWKDDKTLDRYANYEGCLWNATGVVVCTGDETQCYGTWVPIGLAIPENEGGGSEGGGSEGGGSEGGGTKPPEYGDTPIPGYTYINPLDGTYPPGTEQNPANPNPSLEESQPLNTFMFQNNRFRNRQGALTVYTGTVTQGTDPVKTYYQYTPVSSKAMYDAYWNGKFRDCAFHSGFNEDPFVCEYQGQSSDLPQPPVNAGGGSGGGSGGGSEGGGSEGGGSEGGGSEGGGSGGGSGSGDFDYEKMANANKGAMTENADENALQSDAKGKLDSVATDYGAAIDGFIGDVSGLANGNGATGDFAGSNSQMAQVGDGDNSPLMNNFRQYLPSLPQSVECRPFVFSAGKPYEFSIDCDKINLFRGVFAFLLYVATFMYVFSTFANILRNKES",binding result,no binding (tested: 5×10^7 virions/mL)
